Reference: patent US20190202907A1 (180 THERAPEUTICS, published 2019)
Where a chain is given by its changes, count along the chain named.

T1: human ST2L (human, UniProt Q01638 19-328, limits assumed)
T1 construct: also called IL-1R4; IL-33Ra
T1 sequence (looked up): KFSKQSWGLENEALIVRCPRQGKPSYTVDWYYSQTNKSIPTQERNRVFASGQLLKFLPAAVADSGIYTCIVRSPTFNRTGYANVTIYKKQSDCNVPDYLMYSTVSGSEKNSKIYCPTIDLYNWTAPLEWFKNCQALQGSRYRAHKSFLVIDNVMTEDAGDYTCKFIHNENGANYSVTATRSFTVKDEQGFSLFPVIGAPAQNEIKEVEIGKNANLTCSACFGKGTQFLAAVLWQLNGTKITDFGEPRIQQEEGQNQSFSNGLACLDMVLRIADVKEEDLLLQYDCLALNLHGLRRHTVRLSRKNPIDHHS

B1: STLM214 (antibody, from another filing, V domains shown)
VH: EVQLLESGGGLVQPGGSLRLSCAASGFTFSSYDMFWVRQAPGKGLEWVSDIKGEGGRTAYADSVKGRFTISRDNSKNTLYLQMNSLRAEDTAVYYCARDPWSTEGSFFVLDYWGQGTLVTVSS
VL: EIVLTQSPATLSLSPGERATLSCRASQSVDDDLAWYQQKPGQAPRLLIYDASNRATGIPARFSGSGSGTDFTLTISSLEPEDFAVYYCQQYIDAPLTFGQGTKVEIK
B2: STLM215 (antibody, from another filing, V domains shown)
VH: B1 VH with D50A, K52A, A59Y
VL: B1 VL with D93G, L96I
B3: STLM216 (antibody, from another filing, V domains shown)
VH: B1 VH with R57A, A59N
VL: B1 VL with D93G, L96I

Experiments:
cyno ST2L (cyno) = assay: affinity table; method not stated
human ST2L = molecular target: T1, human ST2L; assay: affinity table; method not stated

Binder | Kd (cyno ST2L (cyno)) [nM] | koff (cyno ST2L (cyno)) [s⁻¹] | kon (cyno ST2L (cyno)) [M⁻¹ s⁻¹] | Kd (human ST2L) [nM] | koff (human ST2L) [s⁻¹] | kon (human ST2L) [M⁻¹ s⁻¹]
B1 | 0.037 | 0.000264 | 7.2e+06 | 0.033 | 0.000299 | 9.16e+06
B2 | 0.01 | 0.000369 | 3.54e+07 | 0.025 | 0.000172 | 6.91e+06
B3 | 0.003 | 0.000264 | 7.89e+07 | 0.016 | 0.000158 | 9.63e+06
